To fix the notation:
B1: zebrafish Jamc ectodomain (extracellular IgSF domains) fused to rat Cd4 domains 3 and 4 (domain or fragment, UniProt A3KPA0 24-235, looked up)
chain: VLLKSTNSKPWVNEFESIELSCMIESITTTKPRIEWKKIKNGDPSYVYFDNQISGDLERRAKIREPATLVILNATRSDSADYRCEVTAPNDQKSFDEILISLTVRVKPVVPRCSVPKSIPVGKPAELHCLEDEGYPKSQYQWFRNKEEIPLDPKSSPKFFNSTYTLDGEMGTLKFSAVRKEDAGEYYCRAKNEAGISECGPQMMEVYDINIA
notes: Jamc (official symbol jam3b), zebrafish orthologue of JAM-C; extracellular IgSF domains; Stood both as analyte and as ligand (6H and bio forms); also called Jam3b; JAM-C orthologue; source: mammalian expression system, purified; analyte resolved by gel filtration immediately before use; not shown: rat Cd4 domains 3 and 4, C-terminal, kept

Assay in all cases: SPR; systematic all-against-all screen of the six ectodomains, each as analyte and as ligand; dissociation phase of three concentrations of purified analyte averaged and fitted to a first-order decay curve; t1/2 = ln 2/kd; 28°C; half-lives in the text are the average of both orientations; t1/2 <=0.1 s not quantifiable (10 Hz instrument)
On the technique in general: Surface plasmon resonance follows binding to a sensor surface in real time, without labels.

Data set [1] has as its target zebrafish Jamc ectodomain (extracellular IgSF domains) fused to rat Cd4 domains 3 and 4 (zebrafish) (UniProt A3KPA0).
Data set [2] concerns the target zebrafish Jamc2 ectodomain (extracellular IgSF domains) fused to rat Cd4 domains 3 and 4 (zebrafish).
Data set [3] concerns the molecule itself.
For data set [4], the target named is B1. As to conditions: both partners purified.

As to “zebrafish Jamb2 ectodomain (extracellular IgSF domains) fused to rat Cd4 domains 3 and 4 (from UniProt B0V233 1-306) (domain or fragment)”, the t1/2 (half-life of the complex) in data set [1] worked out at 0.26 s.

In turn, “zebrafish Jamb ectodomain (extracellular IgSF domains) fused to rat Cd4 domains 3 and 4 (from UniProt A0A0R4IGV4 19-226) (domain or fragment)” showed a t1/2 (half-life of the complex) in data set [2] of 7 s.

“zebrafish Jamc2 ectodomain (extracellular IgSF domains) fused to rat Cd4 domains 3 and 4 (from UniProt A0ACD6B6E9 1-301) (domain or fragment)”: the t1/2 (half-life of the complex) in data set [2] was determined as 0.11 s. On to B1, for which the “t1/2 (half-life of the complex)” value in data set [3] was 0.67 s.

B2: zebrafish Jamb ectodomain (extracellular IgSF domains) fused to rat Cd4 domains 3 and 4 (domain or fragment, UniProt A0A0R4IGV4 19-226, looked up)
chain: VTVSSRNPKVEVHEFSDAELSCEFKTEKDTNPRIEWKRKDKEKDVSFVYYGERFVGPFQDRADIEGATVRLRRVTQADAGEYRCEVSAPSDSISLGETNVTLRVLVPPQTPSCDVPSSALTGSQVELRCRDRHSIPPAVYTWYKDNRALPIRHPNATYTVNEFTGVLIPQSHYNPGTVCQHCMYHPNYHIPNTQLTTTFQTHDLNVAA
notes: Jamb (official symbol jam2a), zebrafish orthologue of JAM-B; extracellular IgSF domains; Stood both as analyte and as ligand (6H and bio forms); also called Jam2a; JAM-B orthologue; source: mammalian expression system, purified; analyte resolved by gel filtration immediately before use; not shown: rat Cd4 domains 3 and 4, C-terminal, kept
Take B2: the “t1/2 (half-life of the complex)” value in data set [4] was approximately 1.63 s.

The record behind these values is article PMC3399880, “Genomic Organisation, Embryonic Expression and Biochemical Interactions of the Zebrafish Junctional Adhesion Molecule Family of Receptors” (PLoS ONE, 2012).
